Experimental data reported in patent US20220396616A1.

Assays:
human CLDN18.1 (human) [1] = biological target: human CLDN18.1 (human) (UniProt P56856); experiment: flow cytometry on CLDN18.1-HEK293 cells, 100 µg/mL antibody, replicate 1
human CLDN18.1 (human) [2] = biological target: human CLDN18.1 (human) (UniProt P56856); experiment: flow cytometry on CLDN18.1-HEK293 cells, 100 µg/mL antibody, replicate 2
human CLDN18.1 (human) [3] = biological target: human CLDN18.1 (human) (UniProt P56856); experiment: flow cytometry on CLDN18.1-HEK293 cells, 100 µg/mL antibody, replicate 3

Chain of human CLDN18.1 (human) (P56856 whole entry): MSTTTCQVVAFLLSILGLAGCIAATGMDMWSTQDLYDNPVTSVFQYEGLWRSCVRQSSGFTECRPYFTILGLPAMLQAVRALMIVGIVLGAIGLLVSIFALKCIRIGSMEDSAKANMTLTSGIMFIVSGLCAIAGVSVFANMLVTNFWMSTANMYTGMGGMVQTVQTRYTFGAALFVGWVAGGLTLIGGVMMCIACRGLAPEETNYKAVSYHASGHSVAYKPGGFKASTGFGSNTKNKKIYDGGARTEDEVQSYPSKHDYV

hIgG1 isotype antibody
positive rate of cell binding (human CLDN18.1 (human) [1]): 0.063% | positive rate of cell binding (human CLDN18.1 (human) [2]): 0.233% | positive rate of cell binding (human CLDN18.1 (human) [3]): 0.115%
